The results in this text go back to PMC3236778.

Experiment [1] deals with GkDnaC helicase, wild-type (replicative helicase of Geobacillus kaustophilus HTA426) (Geobacillus kaustophilus HTA426). Nature of the experiment: SEC; size-exclusion column during purification; data not shown.
Experiment [2] has the same target.
Experiment [3] has as its target GkDnaC R420A mutant (arginine finger) (Geobacillus kaustophilus HTA426). Nature of the experiment: SEC; size-exclusion column during purification; data not shown.
For experiment [4], the target named is GkDnaC K309A mutant (Geobacillus kaustophilus HTA426). The description is as above.

For the molecule “GkDnaC helicase, wild-type (replicative helicase of Geobacillus kaustophilus HTA426) (enzyme)”, the stoichiometry N in experiment [1] turned out to be 6.
Turning to “GkDnaI helicase loader (natural protein)”, in experiment [2], the ATPase activity of the GkDnaC-GkDnaI complex (NADH-coupled assay) turned out to be 18.1 µM/min and the unwinding efficiency (fold, against GkDnaC alone), gel shift assay of fork DNA unwinding is 0.15 fold.
Turning to “GkDnaC R420A mutant (arginine finger) (enzyme)”, the stoichiometry N in experiment [3] was found to be 6.
Regarding GkDnaC K309A mutant (enzyme), the stoichiometry N in experiment [4] is 6.

B1: GkDnaG primase, full-length wild-type (enzyme)
chain: MGHRIPEETIEAIRRGVDIVDVIGEYVQLKKQGRNYFGLCPFHGEKTPSFSVSPEKQIFHCFGCGAGGNAFTFLMDIEGIPFVEAAKRLAAKAGIDLSAYELDSRGSDGSRADEAKAMVEAHTLLKRFYHHLLVHTKEGQAALDYLQVRGWTKETIDRFEIGYAPDVPDAAVRLLESRSFPLVLMEKAGLLVKKEDGRYVDRFRNRIMFPIHDHRGETVGFSGRLLGDGQPKYMNSPETPIFRKGTLLYFFHEARVSIRKRQEALLVEGFADVISAVQAGVDYVVATMGTSLTEEQARILRRHAETVTICYDGDSAGTEAAWRAAEQLSAFGCRVKVALLPDGLDPDEYIRTCGADRFAEEIAAARPLMAFKMDRLRRGKNLQEEGDRLRYIEEALREISKLSSPVEKDYYMRQLADEFSLSLSALYEQLSRSKPEQPKPQVNDGGKPVRPALTKKLLPAFQNAERLLLAHMMRSRDVAFIVQEQVGGRFNIEEHRALAAYIYAFYEEGHEADPSALMSRLPGELRTLASELSLLLVADDVSDRELADCIRHVLNHPKWLMLKEKEQEKTEAERRKDFLTAARIAKEMIEMKKMLSSS
Turning to B1, in experiment [2], the ATPase activity of the GkDnaC-GkDnaG complex (NADH-coupled assay) was 79.5 µM/min; the unwinding efficiency (fold, against GkDnaC alone), gel shift assay of fork DNA unwinding stood at 1.45 fold; the unwinding velocity of the GkDnaC-GkDnaG complex (smTPM) is 7.44 bp/s.
